The results in this text go back to patent US12371675B2, “Process and microorganism for synthesis of adipic acid from carboxylic acids” (THE GOVERNING COUNCIL OF THE UNIVERSITY OF TORONTO, priority 2015, dated 2025).

Assay in all cases: AR kinetics, aldehyde reduction followed by NAD(P)H oxidation
Substrate in data set [1]: O=CCCCCC=O
The class given is biochemical, Streptomyces coelicolor. The conditions noted are these: other: adipaldehyde; cofactor NADPH; 1,8% DMSO; pH 7.5. An excerpt:
(§1) 28 aldehyde reductases from different bacteria were cloned and overexpressed in E. coli. Enzymes purified using affinity chromatography on Ni-NTA resin were screened for reductase activity with adipaldehyde and butyraldehyde in presence of both NADPH and NADH (Table 5). Butyraldehyde was used as a substrate substitute for 4-oxo-butanal, which is not commercially available. Reactions were followed spectrophotometrically, by cofactor oxidation at 340 nm.
(§2) Enzyme activity of purified ARs was measured spectrophotometrically in 96-well plates Reaction mixtures contained 100 mM HEPES buffer (pH 7.5), 0.4 mM NADH/NADPH, 10 mM adipaldehyde or butylaldehyde, and proteins (10 μg for adipaldehyde screen, 2 μg for butyraldehyde screen) in a final volume of 200 μL Reaction mixture for adipaldehyde screening contained 1.8% DMSO. Enzyme reactions were monitored by following the decrease in absorbance at 340 nm (ε340 nm=6,220/M·cm) due to oxidation of NAD(P)H to NAD(P)+.
(§3) ARs RHA1_ro05279, PA1146, SC00229, PP_3370 were characterised for saturation with adipaldehyde, PP_3370, PSPTO_2097, RHA1_ro05279, SC00229, TM_0111, PA1146 were characterised for butyraldehyde saturation (Table 10). […] For both substrates maximal kcat/Km with minimal Km values was shown by AR PP 3370 from Pseudomonas putida.

Substrate in data set [2]: CCCC=O
Format: biochemical, Streptomyces coelicolor. The settings on record: other: butyraldehyde, pH 7.5.
Text: as §1, §2, §3

Substrate in data set [3]: O=CCCCCC=O
The class given is biochemical, Pseudomonas putida. The conditions noted are these: other: adipaldehyde, 1,8% DMSO, pH 7.5.
Text: as §1, §2, §3

Substrate in data set [4]: CCCC=O
The class given is biochemical, Pseudomonas putida. The conditions noted are these: other: butyraldehyde, pH 7.5.
Text: as §1, §2, §3

Substrate in data set [5]: CCCC=O
The class given is biochemical, Thermotoga maritima. The settings on record: other: butyraldehyde, pH 7.5.
Text: as §1, §2, §3

B1: Streptomyces coelicolor aldehyde reductase SCO0229, SEQ ID NO: 50 (Streptomyces coelicolor A3(2)) (protein)
chain: MQRQNWLITGVSTGLGRAFAQAALSAGHTVVGTVRSENDVRAFEELGPGHAHGRILDVTDGGAVNGVVAEVERSVGPLDVVVANAGYGLEGTFEETPLAEVRRQFDVNVFGAMATLQAALPHMRARRRGHLMAVTSMGGLMAVPGMSAYCGSKFALEGILEALGKEVAQFGIHVTAIEPGSFRTDWAGRSMTRAARTVADYDDLFAPIREARQKASGNQLGNPAKAGEAVVHITSVDQPPAHLVLGSDALRLVTAARTAVDEDIRAWEALSRTTDFPQGAQL
Usually Km stands for the concentration of substrate that gives half-maximal velocity. The term kcat denotes the number of substrate molecules converted per active site and unit of time at saturation. In the case of B1, in data set [1], the Michaelis-Menten constant (Km) is reported as 8.48 ± 0.58 mM, the turnover number (kcat) stood at 3.79 ± 0.10 s⁻¹ and the kcat/Km entry is given as “(4.47 ± 0.12) × ×10^2 M^−1 · s^−1”. Also, in data set [2] (cofactor NADH), the Km was 6.56 ± 2.54 mM, the catalytic constant (kcat) came to 0.90 ± 0.05 s⁻¹ and the kcat/Km entry is reported as “(1.07 ± 0.18) × ×10^2 M^−1 · s^−1”. Further, in data set [2] (cofactor NADPH), the Km is 35.7 ± 10.5 mM, the kcat was determined as 21.9 ± 4.69 s⁻¹ and the kcat/Km entry is “(6.15 ± 1.31) × ×10^2 M^−1 · s^−1”.

B2: Pseudomonas putida aldehyde reductase PP_3370, SEQ ID NO: 45 (Pseudomonas putida KT2440) (protein)
chain: MQYVKLGSTGLDISRLCLGCMTFGEPDAGTHPWTLGEDASRPIIRHAVEQGINFFDTANSYSAGTSEIILGKLLREFTRREETVIATKVFFPANMWEGASRPNEQGLSRKAIMANIDASLSRLGTDYVDLYQIHRWDYHTPIEETMEALHDVVKAGKARYIGASSMYAWQFAKAQQVAANHGWSRFVSMQNYLNLIYREEEREMIPLCLDQGVGLMPWSPMARGRLTRPHGQQTQRTRTDVSGQSFYEKTEVEDGRVIDVVEQIASERGVPMAQVALAWVLGRAGVSAPIVGASKPAHLDDALGALSLQLSEDEVARLQAPYVPHAVTGFK
Regarding B2, the Michaelis constant (Km) in data set [3] (cofactor NADH) came to 4.78 ± 0.49 mM; in data set [3] (cofactor NADPH), 0.29 ± 0.02 mM; in data set [4] (cofactor NADH) it was 16.1 ± 1.89 mM; in data set [4] (cofactor NADPH) it was 1.53 ± 0.11 mM. In addition, the turnover number (kcat) amounted to 1.74 ± 0.08 s⁻¹ in data set [3] (cofactor NADH), 6.03 ± 0.25 s⁻¹ in data set [3] (cofactor NADPH), 10.7 ± 0.73 s⁻¹ in data set [4] (cofactor NADH) and 8.54 ± 0.22 s⁻¹ in data set [4] (cofactor NADPH). For the same protein, the kcat/Km result in data set [3] (cofactor NADH) was “(3.64 ± 0.16) × ×10^2 M^−1 · s^−1”; in data set [3] (cofactor NADPH) it was 2.08±0.09 ×10^4 M^−1 · s^−1; in data set [4] (cofactor NADH) it was “(6.64 ± 0.45) × ×10^2 M^−1 · s^−1”; in data set [4] (cofactor NADPH), 5.58±0.14 ×10^3 M^−1 · s^−1.

B3: Thermotoga maritima aldehyde reductase TM_0111, SEQ ID NO: 52 (Thermotoga maritima MSB8) (protein)
chain: MFKISFYLPTEIIFRVGAVDELEERAKKLGKKALIVTGRSSTKKTGLLQRVVDLLKKAGVESFVFDKIVPNPISDHVDEAAEIVRKEKIDFIIGLGGGSPIDSAKAISITAPNEGKFWDYVPVGGGKIPEKSIPVVAIPTTHGTGTEADPFAVITNPQTKEKVGIGYRNTFPVLSLVDPEVMKTLPKDQTAYTSMDAFYHAIEAFLNVNANPYSDVLALDAMKRIVTYLPVAYENGEDMEARTNLAWASTEAGITETLTGVIANHALEHGLSGFYPEITHGLGLCITGPYLFEYIFDHAYERLAIVGREVFGVYETDDRKAGRLAIKKLRDFQEMFGLNKRLSELGVKKEDIPKMAETGYRILNGVVVVTPGNLTAKDMEEIFNRCY
B3: in data set [5] (cofactor NADH), the Km came to 1.37 ± 0.31 mM, the kcat turned out to be 0.90 ± 0.05 s⁻¹ and the kcat/Km result is “(6.57 ± 0.36) × ×10^2 M^−1 · s^−1”. In data set [5] (cofactor NADPH), the Km is listed as 2.72 ± 1.39 mM, the catalytic constant (kcat) was 0.30 ± 0.06 s⁻¹ and the kcat/Km entry is reported as “(1.10 ± 0.22) × ×10^2 M^−1 · s^−1”.
